Test system: MS2 coat protein
Experiment: apparent KD of MS2 coat protein; higher = weaker reporter binding
Details: Eterna round: R107
Summary of the method: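 On-chip transcription from Illumina sequencing clusters produced the designed RNA switches. These were titrated with SNAP-549-labelled MS2 coat protein (twofold steps, 0.7 or 1.5 nM to 3 µM) in 100 mM Tris-HCl pH 7.5, 80 mM KCl, 4 mM MgCl2, with or without constant ligand. The apparent KD given is the per-design median of normalised cluster binding-curve fits.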

[1] = input ligand: theophylline 20 uM
[2] = input ligand: theophylline 2 mM
[3] = input ligand: tryptophan 2.4 mM

Row | Sequence | apparent KD of MS2 coat protein (input ligand: arginine 13.2 mM) [nM] | apparent KD of MS2 coat protein (input ligand: none) [nM] | apparent KD of MS2 coat protein [1] [nM] | apparent KD of MS2 coat protein [2] [nM] | apparent KD of MS2 coat protein [3] [nM]
1 | UCGCUCUGGGUGGGAUCCGGAGAUGUGGAAGGAGCGCUGGUAACAGCAGGUAGGUCGCCAACGGACAUGAGGAUCACCCAUGUAC [Same State - Arginine A (Freestyle 17)] | 25.2 | 37.3 | 40 | 44.2 | 26.7
2 | UCGGAUGCGGCGGCCGCCACUCGCGGAUAACGAUAGCUUAACAUGAGGAUCACCCAUGUGUCAUGGAGGACCGGGCCCAUACCGU [pbpmullin] | 18.8 |  | 36.4 | 26.3 | 
3 | UCGUGUGUUUCGGAUACCAGUGAAAUCGAUACAUGAGGAUCACCCAUGUGAGAGGAUGUACACCCUUGGCAGCUGUCUGUAUCUG [asczmullin] | 14.7 |  | 16.8 |  | 12.1
4 | UCUUCGUUGGCGUCACAAUUCAUGCAAUGCCGAGGACCGGUACGGCCGCCACUCGGACUAAUACAUGAGGAUCACCCAUGUCGUG [theeternabot_exclusion_MS2_Trp_A_5] | 37.9 |  | 111 | 219 | 
5 | UCUUUCUAUGUAGAUACCAGCAUGUUAUAUUUCUAAUGACAUGAGGAUCACCCAUGUAAAUGCCCUUGGCAGCUACAUUUUCUUU [SSTHB #4] | 21.6 |  | 22.3 |  | 23.7
6 | UGAACAUGAGGAUCACCCAUGUAGAGGGAAGGAGCGUCGAAGAAGACAGGUAGGUCGCCCAGAAAGAAAUCCUCAUGGAUAAGAA [Same State Arginine A GF2] | 86.2 | 54.4 | 152 | 122 | 69
7 | UGACAUUGCUCAGAUACCAGACAUGAGCAUCAGCCAUGUGCCAACAAGUACAAAAUAAAUGUCCCUUGGCAGCUGAGCAAUGUCU [TheoBX 23 #MS2Left #AlternativeMS2 #Theo22] | 14.1 | 10.9 | 16 | 153 | 12.3
8 | UGACAUUGCUCAGAUACCAGACAUGAGGAUCACCCAUGUACCAAGAAAACGUACAUAAAUGUCCCUUGGCAGCUGAGCAAUGUCU [TheoBX 10 #MS2Left #Theo2] | 175 |  | 535 |  | 531
9 | UGACAUUGCUCAGAUACCAGACAUGAGGAUCACCCAUGUACCAAGAGUACAAAUUAAAAUGUCCCUUGGCAGCUGAGCAAUGUCU [TheoBX 7 #MS2Left #Theo2] | 25.4 |  | 37.8 |  | 19.3
10 | UGACAUUGCUCAGAUACCAGACAUGAGGAUCACCCAUGUGCCAAAUAAACGUACAUAAAUGUCCCUUGGCAGCUGAGCAAUGUCU [TheoBX 11 #MS2Left #Theo2] | 46.8 |  | 87.5 |  | 59.1
11 | UGACAUUGCUGCGAUACCAGACAUGAGGAUCACCCAUGUACCAAGAAAACGUACAUAAAUGUCCCUUGGCAGCGCAGCAAUGUCU [MAT - Exclusion Theophlline B - Mod of Eli - D25] | 170 |  | 593 |  | 806
12 | UGAGAACAUGUCUUUAAGUUUACCUCUGAUACCAGAUUGAAAGGCAUCCCUUGGCAGCAGCAUACAUGAGGAUCACCCAUGUCCU [theeternabot_exclusion_MS2_Theo_A_12] | 64.4 |  | 119 |  | 88.9
13 | UGAGUUCGCUGAUGGGCUACGUCAGGUGAUACCAGCCACUCCCGCGGCCCUUGGCAGCACAUGAGGAUCACCCAUGUAGAGCUUG [Lazaceonus] | 17.9 | 15.7 | 20.4 | 254 | 14.1
14 | UGAUCCUGCAGGGAUACCAGCGCCGCUAGAUAACUAUGCACAUGAGGAUCACCCAUGUAACGCCCUUGGCAGCCCAGCUAAAGGG [Same State Theophylline B GF22] | 23.1 | 58.7 | 60.1 | 31.3 | 48.1
15 | UGAUGGUACGGAAGGAGCGUGUAAGAACAAGAACAUGAGGAUCACCCAUGUAUUAAUUUAACACAGGUAGGUCGCCGUGUUAUUG [11.H] | 31.9 | 29.2 | 35.8 | 54.7 | 16
16 | UGCCGAGACGUGGAUUACCCAUGUACCGAAGGAGCGCCCGAAAGGGCAGGUAGGUCGCGGAGGACAUGAGGAUCACCCAUGUCGA | 83.8 | 34.5 | 127 | 166 | 47
17 | UGGGUACCGACGGCCGCCACUGACUAUAGACAUGAGGAUCACCCAUGUAGAGAUCCUAGACUACCCAGGACCGGGUCUGGUGCUA [Exclusion Tryptophane B GF6] | 61 |  | 165 | 149 | 
18 | UGGUGUAGGGUAAAUAGGAUUAGUACAGAAGGAGCGCGAAUAAACGCAGGUAGGUCGCUGGAAUAACAUGAGGAUCACCCAUGUC [Same State Arginine A GF 26] | 19.6 | 24.8 | 30.6 | 26.2 | 27.8

Row | Sequence | apparent KD of MS2 coat protein (input ligand: arginine 13.2 mM) [nM] | apparent KD of MS2 coat protein (input ligand: none) [nM] | apparent KD of MS2 coat protein [1] [nM] | apparent KD of MS2 coat protein [2] [nM] | apparent KD of MS2 coat protein [3] [nM]
19 | UGUAACAUGAGGAUCACCCAUGUGAGUGAUACCAGAUAAGUAGUAGUCCCUUGGCAGCAUAUUGGGCGAGUGUAUAGUCUAUACG [Same State - Theophylline A (Freestyle 8)] | 111 |  | 183 |  | 150
20 | UGUAUGGACUGAAGGAGCGCCUCAAAAUAGCUUGAGGAUCACCCAAGUAAGGCGAAAGCCGGGCAGGUAGGUCGCAGUCCAUACU [ArgBX 3] | 12.3 | 14.3 | 16.6 | 15.2 | 14.8
21 | UGUAUGGACUGAAGGAGCGGAAGAUAACCUGAGGAUCACCCGGGUAAUAAGGCGAAAGCCUUCCAGGUAGGUCGCAGUCCAUACU | 230 | 293 | 334 | 419 | 250
22 | UGUAUGGACUGAAGGAGCGGGAAAUAAACCUGAGGAACACCCAGGUAAUAGGCGAAAGCCACCCAGGUAGGUCGCAGUCCAUACU | 17.2 | 13.6 | 14.8 | 14.4 | 18.8
23 | UGUAUGGACUGAAGGAGCGGGAAAUAAACCUGAGGAUCACCCAGGUAAUAGGCGAAAGCCACCCAGGUAGGUCGCAGUCCAUACU | 10.7 | 9.91 | 14.3 | 12 | 10.6
24 | UGUAUGUGAACUGAUACCAGACCUCAAUCUUGAGGAUCACCCAAGGAGGACGAAAGUCCGGUCCCUUGGCAGCAGUUCACAUACU [ThBS - Unstable 2] | 162 | 664 | 737 | 40.5 | 1390
25 | UGUAUGUGAUCUGAUACCAGCUAAUAAGCUUGAGGAUCACCCAAGUGGAGCGGAAACGCAAGCCCUUGGCAGCAGAUCGCAUACU [Denovo 4 #StaticStem #AlternativeMS2] | 60.9 | 89.3 | 50.6 | 12.7 | 98.9
26 | UGUAUGUGAUCUGAUACCAGUCCAACUGGUAAAACAUGAGGAUCACCCAUGUAAAAUUGGGACCCUUGGCAGCAGAUCGCAUACU [ThBS 2] | 259 |  | 418 |  | 615
27 | UGUAUGUGAUCUGAUACCAGUCCAACUGGUAAAACCUGAGGAUCACCCUGGUAAAAUUGGGACCCUUGGCAGCAGAUCGCAUACU | 222 | 350 | 674 | 125 | 560
28 | UGUAUUGGAAACAGUACUAGUGAUCCGGUCCGAGGACCGGUACGGCCGCCACUCGAUAUAAAUAAACAUGAGGAUCACCCAUGUA [Ex Tryptophan A 13] | 23.3 |  | 17.1 | 18 | 
29 | UGUCAUGGAAACAUGACAGGUCUUACCGGUCGAGGACCGGUACGGCCGCCACUCGAUUGGUGGCACAUGAGGAUCACCCAUGUUA [SS Tryp A #16] | 21.8 |  | 47.3 | 34.3 | 
30 | UGUCGGCGUAAGUUGGCAUGUCUUGCUGGUCGAGGACCGGUACGGCCGCCACUCGAUCCUUCGCACAUGAGGAUCACCCAUGUUG [SS Tryp A #25] | 20.3 |  | 29.3 | 20.4 | 
31 | UGUGUAAUUGUCUGGUAGAAUUAUUUGUUUCGAGGACCGGUACGGCCGCCACUCGAUAUUUACAUGAGGAUCACCCAUGUUAGCU [JR_SSTryptoA_Sub004] | 13.9 | 14 | 14.3 | 14.9 | 11.6
32 | UGUUUCGCGGGCGAUACCAGCUUGAUCGUACUGGCCUGGUACAUGAGGAUCACCCAUGUAAGCCCUUGGCAGCGCGCGCGAGACG [#1 Exclusion - Theophylline B Attempt #3 (HarryS)] | 19.6 | 13.5 | 18.9 | 32.4 | 15.7
33 | UUAAAUGUGACGGAUACCAGCGUGUUGUAGAACAUGAGGAUCACCCAUGUAGUGAUCAAGCGCCCUUGGCAGCUGGUAUGUUUGA [7.Z] | 227 |  | 224 |  | 124
34 | UUAAAUGUGACGGAUACCAGCGUGUUGUAGAACAUGAGGAUCACCCAUGUAGUGAUCGAGCGCCCUUGGCAGCUGGUAUGUUUGA [7.Y] | 102 |  | 365 |  | 270
35 | UUAAUUAUUGAAUCGUAUUGGUAUUAAGAACGAGGACCGGUACGGCCGCCACUCGUGAUAUACAUGAGGAUCACCCAUGUUAGCA [JR_Nu_SSTryptoA_Sub022] | 15 |  | 18.6 | 18.1 | 
